According to the nanobody polyreactivity screen of Harvey et al. (2022):

Test: yeast display, Sf9 membrane polyspecificity reagent, FACS + sequencing; frameworks hold sequencing errors
How it was run: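 Sorting gates, low and high (top ~1%), were placed on anti-HA fluorescence to track expression and on streptavidin fluorescence to track reagent binding. A clone's polyreactivity label is taken from the gate it came out of. The reagent was 10% biotinylated, detergent-solubilized Sf9 membrane, applied for 1 hour at 4 °C to galactose-induced yeast display cells.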

Row | Sequence | polyreactivity (PSR sort gate)
1 | QVQLVESGGGLVQAGGSLRLSCAASGRIFKRYVMGWYRKAPGKERELVAAITWRGGTYYADSVKGRFTISRDNAKNTVYLQMNSLKPEDTAVYYCAADTYFSGAGGQAYQYDYWGLGTQVTVSS | high polyreactivity
2 | QVQLVESGGGLVQAGGSLRLSCAASGSIFEHNSMGWYSQAPGKERELGAAITISGGGTYYADSVKGRFTISRDNAKNTVYLQMNSLKPEDTAVYYCNRDKPGLVFTSYNYSSSYDYWGPGTQVTVSS | low polyreactivity
3 | QVQLVESGGGLVQAGGSLRLSCAASGRIFLWYAMGWYRQAPGKERELVAVITGGGSTNYADSVKGRFTISRDNAKNTVYLQMNSLKPEDTAVYYCATEGYGHGGETDGGVYSDLGYWGQGTQVTVSS | low polyreactivity
4 | QVQLVESGGGLVQAGGSLRLSCAASGRIFWVNVMGRYIQAPGKERELVPAITRGASTYADSVKGRFTISRDNAKNTVYLQMNSLKPEDTAVYYCAADTKRRSIRYDYWGEGTQVTVSS | high polyreactivity
5 | QVQLVESGGGLVQAGGSLRLSCAASGGTFEYNAMGWYRPAPGKERELVAAISKSGGRTYYADSVKGRFTISRDNAKNTVYLQMNSLKPEDTAVYYCAKRYVWGQGTQVTVSS | high polyreactivity
6 | QVQLVESGGGLVQAGGSLRLSCAASGIIFYSYAMGWYRPAPGKERELVAAISTGSSTNYADSVKGRFTISRDNAKNTVYLQMNSLKPEDTAVYYCAKSTAVKPYAYRESGFIYDYWGQGTQVTVSS | low polyreactivity
7 | QVQLVESRGAIVQAGASLRLSSAASGFTFWDYAMGCYRQAPGKERELVAAISSRGTRTYYADSVKGRFTISRDNAKNTVYLQMNSLKPEDTAVYYCATASPDPDYIHNYWGQGTQVTVSS | high polyreactivity
8 | QVQLVESGGGLVQAGGSLRLSCAASGSILRSNAMGWYRQAPGKERELVATITNSGGSTYADSVKGCFTISRDNANNTVYLQMNSLKPEDTAVYYCAKAGAGESIAKYDYWGQGTQVTVSS | low polyreactivity
9 | QVQLVESGGGLVQAGGSLRLSCAASGSIFRVYAMGWYRQAPGKVRELVAVISIAGRTNYADSVKGRFTISRDNAKNTVYLQMNSLKPEDTAVYYCNAEWDLNHLYDSWGQGTQETVSS | low polyreactivity
10 | QVQLVESGGGLVQAGGSLRLSCAASGITFGKNAMGWYRQAPGKESEFVAAISWGGGRTYYADSVKGRFTISRDNAKNTVYLQMNSLKPEDTAVYYCNVGPRAGWYRSNYDYWGQGTQVTVSS | low polyreactivity
11 | QVQHVESVGGLVQAGGTLRLSCSASGQIFEPYAMGWYRQAPGKERELVAAINSGGSTNYADSVKGRFTISRDNAKNTVYLQMNSLKPEDTAVYYCNKGQNIRQSPGDYWGLGTQVTVSS | low polyreactivity
12 | QVQLVESGGGLVQAGGSLRLSCAASGRIFRGNAMGWYRQPPGKERELGATITRSGARTYYADSVKGRFTISRDNAKNTVYLQMNSLKPEDTAVYYCAARRVRSYAYDYWGQGTQVTVSS | high polyreactivity
13 | QVHLVESGGGLVQAGGSLRLSCAASGSTFYRYAMGWYRQAPGKERELVAAITRSGGSTYYADSVKGRFTISRDNAKNTVYLLMNSLKPEDTAVYYCAADRYYVYTFYYWGQGTQVTVSS | high polyreactivity
14 | QVQLVESGGGLVQAGGSLRLSCAASGSIFKSYAMGWYRQAPGKERELVAAITWRSGRTYYADSVKGRFTISRDNAKNTVYLQMNSLKPEDTAVYYCAADDTSYYIYSYDYWGQGTQVTVSS | low polyreactivity
15 | QVHLVESGGGLDQAGGSLRLSCAASGRIFPLYAMGWYRQAPGKERELVAAISSGGTTYYADSVKGRFTISRDNAKNTVYLQMHSLKPEDTAVYYCARRPAQRWGRFDYWGQGTQVTVSS | low polyreactivity
16 | QDQLVESGGGLVQAGGSLRLSFAASGSTFVRYAMVWYRQAPGKERELVAAISRSGGSTYYADSVKGRFTISRDNAKNTVYLQMNSLKPEDTAVYYCAARLVYSGRDRGYDYWGQGTQVTVSS | high polyreactivity
17 | QVQLVESGGGLVQAGGSLRLSCAASGSIFVAYAMGWYRQAPGKERELVAAITAVGSTYYADSVKGRFTISRDNAKNTVYLQMNSLKAEDTAVYYCAKRQLRPTYRYGYWGQGNQVTVSS | low polyreactivity
18 | QVQLVESGGGLVQAGGSLRLSCAASGNTFPPNAMGWYRQAPGKERELVAAISWSGDSTYYADSVKGRFTISRDNAKNTVYLQMNSLKPEDTAVYYCAAAIFGEYEYWGQGTQVTVSS | low polyreactivity
19 | QVQLVESGGGLVQAGGSLRLSCAPSGFIFHKYVMGWYRQAPGKERELVAAISRSGASTYYADSVKGRFTISRDNAKNTVYLQMNSLKPEDTAVYYCNAQPGKWEYDYWGQGTQVTVSS | high polyreactivity
20 | QVQLVESGGGLVQAGGSLRLSCAASGITFYRYAKGSYRQAPGKERELVAAIRRAGSTYYADSVKGRVTISRDNAKKTVYLQMNSLKPEDTAVYYCNARYGIGMNYWGQGTQVTVSS | high polyreactivity
21 | QVQLVESGGGLVQAGGSLRISCDASGSTLRGYSIGWYRQAPGKERELVAAISRRGSGTYYADSVKGRFTISRDNAKNTVYLQMNSLKPEDTAVYYCNAVNGDYEFGYWGQGTQVTVSS | high polyreactivity
22 | QVQLVESGGGLVQAGGSLRLSCAASGSIYYNAMGWYRQAPGKERELVAAISTSGGTTYYADSVKGRFTISRDNAKNTVYLQMNSLKPEDTAVYYCNALSVPDYDYWGQGTQVTVSS | high polyreactivity

Row | Sequence | polyreactivity (PSR sort gate)
23 | QVQLVESGGGLVQAGGSLRLSCAASGISFVYYAMGWYRQAPGKERELVAAITSDGGSTYYADSVKGRFTISRDNAKNTVYLQMNSLKPEDTAVYYCAAEWTSWSWWYGWYEFDYWGQGTQVTVSS | high polyreactivity
24 | QVQLVESGGRLVQAGGSLRLSCAASGRTFGGYMGWYRQAPGKESELVAVISSGDSTNYADSVKGRFTITRDNAKNTVYLQMNSVKPEDSAVYYCIAYGSDRLTLDDFWGQGTQVTVSS | low polyreactivity
25 | QVQLVESGGGLVQAGGSLRLSCAASGRIFRYYVMGWYRQAPGKERELVAAITSGGSTYYADSVKGRFTISRDNAKNTVYLQMNSLKPEDTAVYYCAAETTLPIFYYTQVNYWGQGTQVTVSS | low polyreactivity
26 | QVQLVESGGGLVQAGGSLRLSCAASGSTFSWYVMGWYRQAPGKERELVAAITRGGGSTYYADSVKGRFTISRDNAKNTVYLQMNSLKPEDAAVYYCNADPGFRSGDYGYSSFDYWGQGTQVTVSS | low polyreactivity
27 | QVQLVESGGGLVQAGGSLRLSCAASGRTFWYYAMGWYRQSPGKERELVAVITSGSSTYYADSVKGRFTISRDNAKNTVYLQMNSLKPEDTAVYYCAVGRTYRRYSAASYNYWGQGTQVTVSS | high polyreactivity
28 | QVQLVDSGGGLVQAGGSLRLSCAASGSTFRYYAMGWYRQAPGKEREFVAAITRSGGSTYYADSVKGRFTISRDNAKNTVYLQMNSLKPEETAVYYCNARPSASSRKKLERYYWGQGTQVTVSS | low polyreactivity
29 | QDQLVESGGGLVQAGGSLRLSCAASGRTFWAYAMGWYRQAPGKEREVVASIRSSGTSTYYADSVMGRFTISRDNAKNSVYLQMNSLKPEDTAVYYCAATSGYARYYHREYWGQGTQVTVSS | high polyreactivity
30 | QVQLVESGGGLVQAGGSLPLSCAASGRTFDANAMGWSRQAPGKERELVAAISSDGSTNYADSVKGRFTISRDNAKNTVYLQMNSLKPEDTAVYYCATDGKPLIRYDYDYWGQGTQVTVSW | high polyreactivity
31 | QVQLVESGGGLVQAGGSLRLSCAASGFTFGAYARGWYRQAPGKERELVAAISSRGGSTYYADSVKGRFTISRDNAKNTVYLQKNSLKPEDTAVYYCAANSYRRTGYNYWGQGTQVSVSS | high polyreactivity
32 | QVQLVESGGGLVQAGGSLRFSCAASGTFVPYAMGWYRQAPGKEMELVARITWRGGSTYYADSVKGRFTISRDNANNTVYLQMNSLKPEETAVYYCATVSDNRYYYWGQGTQVTVSS | low polyreactivity
33 | QVQLVESGGGLVQAGGSLRLSCAASGSTFWANAMGWSRPAPGKERELVAAITSTGITYYADSVKGRFTISRDNAKNTVYLQMNSLIPEDTAVYYCAAEPPDEFWTDLLVDYFLGYEYWGPGTQVTVSS | low polyreactivity
34 | QVQLVESGGGLVQAGGSLRLSCAASGSTFYNYALGWYRQAPGKERELVAAIRRSGGSTYYADSVKGRFTISRDNAKNTVYFQMNSLKPEDTAVYYCAASYYTRGYWGQGTQVTVSS | high polyreactivity
35 | QVQLVESGGGLLQAGGSLRLSCAASGRIFGVYAMGWYRQAPGKEMELVAAISWGGGSTYYADSVKGRFTISRDNAKNTVYLQMISLKPEDTAVFDCAADPPDGFYYTWDYDYWGQGTQVTVSS | low polyreactivity
36 | QVQLVESGGGLVQAGGSLRLICAASGSIFDKYARGWYRQEPGKERELVAAIDSGDTYYADSVKGRFTISRDNAKNTVYLQMNSLKPEDTAVYYCAADDVQYEYDYWGQGTQVTVSS | low polyreactivity
37 | QVQLVESGGGLVQAGGSLRLSCAASGRIFVFYAMGWYRQAPGKVREFVATISYSGDTTYYADSVKGRFTISRDNAKNTVYLEMNSLKPEDTAVYYCAADQVPSYYYVPLGYDSWGQGTQVTVSS | low polyreactivity
38 | QVQLVESGGGLVQAGGSLRLSCAASGSIFRRYAMGWYRQAPGKERELVAAITGTGGRTYYADSVKGRFTMSRDNAKNTVYLQMNSLKPEDTAVYYCNKLVTYYRADPEYDYWGQGTHVTVSS | high polyreactivity
39 | QVQLVESGGGLVQAGGSLRLSCAASGLIIKWYAMGWYRQAPGKERELVAAITRTGGSTYYADSVKGRFTISRDNAKNTVYLQMNSLKPEDTAVYYCADRPVYFRYIAYYDWTPSFDFWGQGTQVTVSS | low polyreactivity
40 | HVQLVESGGGLVQAGGSLRLSCAASGSIFEYYAMGWYRQAPGKERELVASISRGTSTNYADSVKGRFTISRDNAKNTVYLQMNSLKPEDTAVYYCNADGWTVVLDTYGSWGQGTQVTVSS | low polyreactivity
41 | QFQLVESGGGLDQAGGSLRLSCAASGLTFYGYAMGWYRQAPGKERELVAAITWGGGSTYYADSVKGRFTISRDKAKNTVYLQMNSLKPEETEVYYCNADYYLPAIRYDYWGQGTKVTVSS | low polyreactivity
42 | QVQLVESGVGLVQAGGSLRLRCAASGFIFIHNAMGWYRQAPGKERELVAAISYSGGSTYYADSVKGRFTISRDTAKNTVYLQMNSLKPEDTAVYFCNRVQYYRADRMDYWGQGTQVTVSS | low polyreactivity
43 | QVQLVESRGGLVQAGGSLRLISAASGSSFLSYAMGWYRQAPGKERELVAAITGSGGNTYYADSVKGRFTISRDNAKNTVYLQMNSLIPEDTAVYYCAARAPTWAGTYGYWGQGTQVTVSS | high polyreactivity
